Primed or numbered codes have the meaning given here. Where no end group is shown, it is not given here. Side-chain parts run from the residue outwards. [ ]: non-standard residue; d: D form. triazole = 1,2,3-triazole formed by click reaction of the propargylglycine alkyne with ROX-azide; Pra′ = its azide, alkyne or alkene has reacted where a group follows in round brackets; ROX = carboxy-X-rhodamine, joined by click triazole
Columns and labels:
[1] = target: T1, biotinylated hPD-L1 (extracellular domain of human PD-L1, Ala18 to Thr239, expressed in E. coli, … (human, biotin on the epsilon-amino group of the Avi tag lysine (BirA))); assay: fluorescence polarization, 100 nM ROX-SPAM with 2.4 nM-5 uM non-glycosylated hPD-L1, 21 C (119 +/- 33 nM in paragraph 94); non-glycosylated, E. coli-expressed hPD-L1
T1 construct: also called recombinant hPD-L1; non-glycosylated hPD-L1
Experimental: (§1) The resulting values were plotted against the concentration of hPD-L1 or hPD-L1* and fit to a one-site saturation binding model with GraphPad Prism.
(§2) The fluorescence polarization of each sample was measured on a Synergy H4 Hybrid Multi-Mode Microplate Reader. Each measurement was carried out in triplicate and the mean value was calculated. The values were fit to a one-site saturation binding model in GraphPad Prism to obtain the corresponding equilibrium dissociation constants.

[2] = target: T2, hPD-L1* (recombinant glycosylated human PD-L1 ectodomain, A18-T239, expressed in Expi293F cells) (human, UniProt Q9NZQ7 18-239, N-glycosylated; Avi tag biotinylated in vitro with BirA); assay: fluorescence anisotropy, 100 nM ROX-SPAM titrated with hPD-L1*
T2 construct: also called glycosylated hPD-L1
Experimental: (§3) Each measurement was carried out in triplicate and the mean value was reported along with the standard deviation. […] The mean of the normalized binding for each incubation time is shown along with the standard deviation of the mean. Each measurement was carried out in triplicate and error bars show the standard deviation of the mean (Students t-test; p value <0.05 (*), <0.01 (**), <0.005 (***), <0.001 (****)).
as §1

[3] = target: T2, hPD-L1* (recombinant glycosylated human …); assay: fluorescence polarization, 100 nM ROX-SPAM with 2.4 nM-5 uM glycosylated hPD-L1*, 22 C (67 +/- 21 nM in paragraph 94); glycosylated hPD-L1*
Experimental: as §1, §2

[4] = target: T1, biotinylated hPD-L1 (extracellular …); assay: fluorescence anisotropy, 100 nM ROX-SPAM titrated with hPD-L1
Experimental: as §3, §1

- Kd [1]: 119 nM
- EC50 (read off the curve) [2]: ~70 nM
- Kd [3]: 67 nM
- EC50 (read off the curve) [4]: ~100 nM
B1: ROX-SPAM (carboxy-X-rhodamine labeled SPAM peptide) (peptide)
peptide: MPIFLDHILNKFWILHYASG[Pra′]([triazole-ROX])-NH2
modifications: also: ROX attached to Pra by click triazole
notes: Synthetic peptide used in fluorescence polarization; also called ROX-labeled SPAM
